Data from doi:10.1101/181321 (bioRxiv, 2017).

T1: C-terminal region of human Importin4 (C-Importin4, residues 668 to 1081) (human, UniProt Q8TEX9 668-1081)
T1 sequence: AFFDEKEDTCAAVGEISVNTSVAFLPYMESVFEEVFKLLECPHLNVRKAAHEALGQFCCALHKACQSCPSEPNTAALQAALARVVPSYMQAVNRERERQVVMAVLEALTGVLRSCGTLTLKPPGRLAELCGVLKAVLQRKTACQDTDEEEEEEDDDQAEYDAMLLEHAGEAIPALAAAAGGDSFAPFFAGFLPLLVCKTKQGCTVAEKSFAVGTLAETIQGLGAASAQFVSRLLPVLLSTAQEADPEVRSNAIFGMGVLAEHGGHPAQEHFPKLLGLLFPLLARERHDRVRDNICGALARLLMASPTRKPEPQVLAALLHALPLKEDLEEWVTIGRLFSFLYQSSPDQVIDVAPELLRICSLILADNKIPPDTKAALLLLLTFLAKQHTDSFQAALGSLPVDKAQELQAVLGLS


Columns and labels:
[1] = biological target: C-terminal biotinylated histone H3 peptide (1 to 35 a.a.) (UniProt P68431); assay: SPR
[2] = biological target: T1, C-terminal region of human Importin4 …; assay: SPR

Molecule | Kd [1] [nM] | binding result [2]
C-terminal region of human Importin4 (C-Importin4, residues 668 to 1081) (from UniProt Q8TEX9 668-1081) (domain or fragment) | 1600 | 
ARTKQTARKSTGGKAPRK [histone H3 peptide (1-18 a.a.)] |  | binds
